Data: patent publication US20240024414

Molecular target: L7Ae (50S ribosomal protein L7Ae, L30 family, RBP11) (Archaeoglobus fulgidus) (UniProt O29494)
Experiment: pulldown
Conditions: RIP-Seq enrichment, may be indirect

Sequence of L7Ae (50S ribosomal protein L7Ae, L30 family, RBP11) (Archaeoglobus fulgidus) (O29494 whole entry): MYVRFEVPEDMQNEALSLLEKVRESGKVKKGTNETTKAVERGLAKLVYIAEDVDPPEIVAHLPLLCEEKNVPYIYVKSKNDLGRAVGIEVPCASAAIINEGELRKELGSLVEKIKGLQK

Row | Substance | binding signal (log2 fold change)
1 | FAM69A RNA | 4.98
2 | NPM1 RNA | 3.22
3 | SNORA62 RNA | 3.32
4 | SNORA73B RNA | 4.08
5 | SNORA79B RNA | 3.28
